# Reference: patent US20200199241A1 (Chugai, published 2020)
# Where a chain is given by its changes, count along the chain named.
# B1: IgG1-F584 (antibody)
# heavy: QVQLQESGPGLVKPSETLSLTCAVSGHSISHDHAWSWVRQPPGEGLEWIGFISYSGITNYNPSLQGRVTISRDNSKNTLYLQMNSLRAEDTAVYYCARSLARTTAMDYWGEGTLVTVSSASTKGPSVFPLAPSSKSTSGGTAALGCLVKDYFPEPVTVSWNSGALTSGVHTFPAVLQSSGLYSLSSVVTVPSSSLGTQTYICNVNHKPSNTKVDKKVEPKSCDKTHTCPPCPAPELLGGPKVFLFPPKPKDTLYISREPEVTCVVVDVSHEDPEVKFNWYVDGVEVHNAKTKPREEQYNSTYRVVSVLTPLHQDWLNGKEYKCKVSNKALPAPIEKTISKAKGQPREPQVYTLPPSRDELTKNQVSLTCLVKGFYPSDIAVEWESNGQPENNYKTTPPVLDSDGSFFLYSKLTVDKSRWQQGNVFSCSVMHEALHNHYTQKSLSLSP
# light: not shown
# notes: EU numbering; copies: 2 + 2
# B2: IgG1-F598 (antibody)
# heavy: B1 heavy with K241S, E258T, P310V, D314A, P389E, N436Y
# light: not shown
# notes: EU numbering; copies: 2 + 2
# B3: IgG1-F599 (antibody)
# heavy: B1 heavy with K241S, E258T, P310V, P389E, M430Y, N436Y
# light: not shown
# notes: EU numbering; copies: 2 + 2
# B4: IgG1-F666 (antibody)
# heavy: B1 heavy with K241S, E258T, N288F, N436Y
# light: not shown
# notes: EU numbering; copies: 2 + 2
# B5: IgG1-F635 (antibody)
# heavy: B1 heavy with K241S, E258T, V286K, N436Y
# light: not shown
# notes: EU numbering; copies: 2 + 2
# B6: IgG1-F595 (antibody)
# heavy: B1 heavy with E258T, P310V, M430I, N436Y
# light: not shown
# notes: EU numbering; copies: 2 + 2
# B7: IgG1-F641 (antibody)
# heavy: B1 heavy with K241S, E258T, Q388K, N436Y
# light: not shown
# notes: EU numbering; copies: 2 + 2
# B8: IgG1-F622 (antibody)
# heavy: B1 heavy with E258Q, P310V, N436Y
# light: not shown
# notes: EU numbering; copies: 2 + 2
# B9: IgG1-F625 (antibody)
# heavy: B1 heavy with Y254M, E258T, P259A, T309Q, P310V, M430L, N436Y
# light: not shown
# notes: EU numbering; copies: 2 + 2
# B10: IgG1-F597 (antibody)
# heavy: B1 heavy with K241S, E258T, P310V, E384A, P389E, N436Y
# light: not shown
# notes: EU numbering; copies: 2 + 2
# B11: IgG1-F660 (antibody)
# heavy: B1 heavy with E258T, P331K, N436Y
# light: not shown
# notes: EU numbering; copies: 2 + 2
# B12: IgG1-F611 (antibody)
# heavy: B1 heavy with K241S, E258T, V307T, T309P, P310I, L311A, N436Y
# light: not shown
# notes: EU numbering; copies: 2 + 2
# B13: IgG1-F639 (antibody)
# heavy: B1 heavy with K241S, E258T, G387R, N436Y
# light: not shown
# notes: EU numbering; copies: 2 + 2
# B14: IgG1-F623 (antibody)
# heavy: B1 heavy with Y254W, E258T, P310V, N436W
# light: not shown
# notes: EU numbering; copies: 2 + 2
# B15: IgG1-F637 (antibody)
# heavy: B1 heavy with K241S, E258T, K290S, N436Y
# light: not shown
# notes: EU numbering; copies: 2 + 2
# B16: IgG1-F638 (antibody)
# heavy: B1 heavy with E258T, K290S, N436Y
# light: not shown
# notes: EU numbering; copies: 2 + 2
# B17: IgG1-F640 (antibody)
# heavy: B1 heavy with E258T, G387R, N436Y
# light: not shown
# notes: EU numbering; copies: 2 + 2
# B18: IgG1-F643 (antibody)
# heavy: B1 heavy with L237G, G238R, E258T, N436Y
# light: not shown
# notes: EU numbering; copies: 2 + 2
# B19: IgG1-F592 (antibody)
# heavy: B1 heavy with K241S, S256T, E258T, P310V, E384A, N436Y
# light: not shown
# notes: EU numbering; copies: 2 + 2
# B20: IgG1-F600 (antibody)
# heavy: B1 heavy with K241S, E258Q, P310V, E384A, N436Y
# light: not shown
# notes: EU numbering; copies: 2 + 2
# B21: IgG1-F593 (antibody)
# heavy: B1 heavy with S256T, E258T, M430I, N436Y
# light: not shown
# notes: EU numbering; copies: 2 + 2
# B22: IgG1-F652 (antibody)
# heavy: B1 heavy with P240D, K241S, E258T, P310V, N436Y
# light: not shown
# notes: copies: 2 + 2
# B23: IgG1-F646 (antibody)
# heavy: B1 heavy with E258T, N299A, N436Y
# light: not shown
# notes: EU numbering; copies: 2 + 2
# B24: IgG1-F601 (antibody)
# heavy: B1 heavy with K241S, E258T, N288E, N436Y
# light: not shown
# notes: EU numbering; copies: 2 + 2
# B25: IgG1-F612 (antibody)
# heavy: B1 heavy with K241S, E258T, T309P, P310I, L311A, N436Y
# light: not shown
# notes: EU numbering; copies: 2 + 2
# B26: IgG1-F657 (antibody)
# heavy: B1 heavy with G239R, E258T, N436Y
# light: not shown
# notes: EU numbering; copies: 2 + 2
# B27: IgG1-F650 (antibody)
# heavy: B1 heavy with P310V, N436Y
# light: not shown
# notes: EU numbering; copies: 2 + 2
# B28: IgG1-F630 (antibody)
# heavy: B1 heavy with E258T, V281L, N436Y
# light: not shown
# notes: EU numbering; copies: 2 + 2
# B29: IgG1-F594 (antibody)
# heavy: B1 heavy with M430I, N436Y
# light: not shown
# notes: EU numbering; copies: 2 + 2
# B30: IgG1-F663 (antibody)
# heavy: B1 heavy with E258T, N288E, T309Q, Q313A, N436Y
# light: not shown
# notes: EU numbering; copies: 2 + 2
# B31: IgG1-F664 (antibody)
# heavy: B1 heavy with K241S, E258T, N288A, N436Y
# light: not shown
# notes: EU numbering; copies: 2 + 2
# B32: IgG1-F659 (antibody)
# heavy: B1 heavy with P240R, E258T, N436Y
# light: not shown
# notes: EU numbering; copies: 2 + 2
# B33: IgG1-F620 (antibody)
# heavy: B1 heavy with S256T, E258T, P310V, N436Y
# light: not shown
# notes: EU numbering; copies: 2 + 2
# B34: IgG1-F642 (antibody)
# heavy: B1 heavy with E258T, Q388K, N436Y
# light: not shown
# notes: EU numbering; copies: 2 + 2
# B35: IgG1-F661 (antibody)
# heavy: B1 heavy with E258T, P331R, N436Y
# light: not shown
# notes: EU numbering; copies: 2 + 2
# B36: IgG1-F665 (antibody)
# heavy: B1 heavy with K241S, E258T, N288D, N436Y
# light: not shown
# notes: EU numbering; copies: 2 + 2
# B37: IgG1-F633 (antibody)
# heavy: B1 heavy with K241S, E258T, V284D, N436Y
# light: not shown
# notes: EU numbering; copies: 2 + 2
# B38: IgG1-F585 (antibody)
# heavy: B1 heavy with E258T, N288E
# light: not shown
# notes: EU numbering; copies: 2 + 2
# B39: IgG1-F634 (antibody)
# heavy: B1 heavy with E258T, V284D, N436Y
# light: not shown
# notes: EU numbering; copies: 2 + 2
# B40: IgG1-F587 (antibody)
# heavy: B1 heavy with K241S, E258T, N288E, P310V, M430L, N436Y
# light: not shown
# notes: EU numbering; copies: 2 + 2
# B41: IgG1-F668 (antibody)
# heavy: B1 heavy with K241S, E258T, N288H, N436Y
# light: not shown
# notes: EU numbering; copies: 2 + 2
# B42: IgG1-F621 (antibody)
# heavy: B1 heavy with E258T, T309A, P310V, Q313H, N436Y
# light: not shown
# notes: EU numbering; copies: 2 + 2
# B43: IgG1-F644 (antibody)
# heavy: B1 heavy with G238R, E258T, N436Y
# light: not shown
# notes: EU numbering; copies: 2 + 2
# B44: IgG1-F596 (antibody)
# heavy: B1 heavy with K241S, E258T, P310V, D314A, E384A, M430Y, N436Y
# light: not shown
# notes: EU numbering; copies: 2 + 2
# B45: IgG1-F586 (antibody)
# heavy: B1 heavy with E258T, N288E, M430I
# light: not shown
# notes: EU numbering; copies: 2 + 2
# B46: IgG1-F651 (antibody)
# heavy: B1 heavy with E258T, P310V, Q313A, N436Y
# light: not shown
# notes: EU numbering; copies: 2 + 2
# B47: IgG1-F645 (antibody)
# heavy: B1 heavy with E258T, L330R, N436Y
# light: not shown
# notes: EU numbering; copies: 2 + 2
# B48: IgG1-F647 (antibody)
# heavy: B1 heavy with P240D, K241S, E258T, N436Y
# light: not shown
# notes: EU numbering; copies: 2 + 2
# B49: IgG1-F649 (antibody)
# heavy: B1 heavy with E258T, N288E, P310V, N436Y
# light: not shown
# notes: EU numbering; copies: 2 + 2
# B50: IgG1-F636 (antibody)
# heavy: B1 heavy with E258T, V286K, N436Y
# light: not shown
# notes: EU numbering; copies: 2 + 2
# B51: IgG1-F658 (antibody)
# heavy: B1 heavy with P240K, E258T, N436Y
# light: not shown
# notes: EU numbering; copies: 2 + 2
# B52: IgG1-F629 (antibody)
# heavy: B1 heavy with K241S, E258T, V281L, N436Y
# light: not shown
# notes: EU numbering; copies: 2 + 2
# B53: IgG1-F624 (antibody)
# heavy: B1 heavy with Y254M, E258T, P259A, N288E, T309Q, P310V, M430L, N436Y
# light: not shown
# notes: EU numbering; copies: 2 + 2
# B54: IgG1-F618 (antibody)
# heavy: B1 heavy with Y254M, E258T, P310F, N436Y
# light: not shown
# notes: EU numbering; copies: 2 + 2
# B55: IgG1-F656 (antibody)
# heavy: B1 heavy with G239K, E258T, N436Y
# light: not shown
# notes: EU numbering; copies: 2 + 2
# B56: IgG1-F654 (antibody)
# heavy: B1 heavy with L237K, E258T, N436Y
# light: not shown
# notes: EU numbering; copies: 2 + 2
# B57: IgG1-F655 (antibody)
# heavy: B1 heavy with L237R, E258T, N436Y
# light: not shown
# notes: EU numbering; copies: 2 + 2
# B58: IgG1-F667 (antibody)
# heavy: B1 heavy with K241S, E258T, N288G, N436Y
# light: not shown
# notes: EU numbering; copies: 2 + 2
# B59: IgG1-F669 (antibody)
# heavy: B1 heavy with K241S, E258T, N288I, N436Y
# light: not shown
# notes: EU numbering; copies: 2 + 2
# B60: IgG1-F619 (antibody)
# heavy: B1 heavy with E258T, P310V, N436Y
# light: not shown
# notes: EU numbering; copies: 2 + 2
# Target: T1, human FcRn (soluble human FcRn complexed with β2-microglobulin) (human, UniProt P61769 21-119, limits assumed)
# T1 construct: also called hFcRn
# T1 sequence (chain, as listed by the source limits assumed, chain 1 of 2): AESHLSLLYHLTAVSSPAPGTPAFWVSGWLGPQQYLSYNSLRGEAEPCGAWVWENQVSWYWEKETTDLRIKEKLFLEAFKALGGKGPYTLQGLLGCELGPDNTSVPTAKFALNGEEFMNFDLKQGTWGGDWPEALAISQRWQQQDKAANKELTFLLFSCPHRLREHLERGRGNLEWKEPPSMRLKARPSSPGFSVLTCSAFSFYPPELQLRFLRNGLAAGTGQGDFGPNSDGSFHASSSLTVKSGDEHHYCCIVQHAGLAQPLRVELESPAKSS
# T1 sequence (P61769 21-119 limits assumed, chain 2 of 2): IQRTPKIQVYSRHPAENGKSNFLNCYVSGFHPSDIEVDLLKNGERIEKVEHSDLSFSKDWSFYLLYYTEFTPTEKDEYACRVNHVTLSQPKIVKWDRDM
# Test: SPR, pH 7.0;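 note: antibodies captured on a Protein L sensor chip with human FcRn injected as analyte, KD calculated from fitted association and dissociation rate constants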
row,Binder,Kd [nM]
1,B1,630
2,B2,140
3,B3,520
4,B4,21
5,B5,45
6,B6,180
7,B7,30
8,B8,350
9,B9,76
10,B10,220
11,B11,31
12,B12,280
13,B13,27
14,B14,180
15,B15,150
16,B16,140
17,B17,36
18,B18,32
19,B19,200
20,B20,280

row,Binder,Kd [nM]
1,B21,31
2,B22,240
3,B23,38
4,B24,9.6
5,B25,360
6,B26,32
7,B27,170
8,B28,37
9,B29,16
10,B30,6.4
11,B31,39
12,B32,30
13,B33,210
14,B34,30
15,B35,34
16,B36,20
17,B37,24
18,B38,290
19,B39,32
20,B40,190

row,Binder,Kd [nM]
1,B41,40
2,B42,150
3,B43,30
4,B44,400
5,B45,140
6,B46,180
7,B47,33
8,B48,29
9,B49,120
10,B50,48
11,B51,32
12,B52,39
13,B53,14
14,B54,640
15,B55,33
16,B56,32
17,B57,34
18,B58,30
19,B59,35
20,B60,310
